Values quoted from earlier work in publication PMC7411019.

Biological target: cTnI-binding peptide

Chain of Cardiac troponin I 114-144 (P19429 114-144): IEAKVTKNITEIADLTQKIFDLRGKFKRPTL

Kd: 0.27 nM
Substance: Cardiac troponin I 114-144 (from UniProt P19429)
